Patent US20190336574A1 (TRUSTEES OF PRINCETON UNIVERSITY, published 2019)

T1: His6-SND1ΔC (SND1 residues 1-339) (human, UniProt Q7KZF4 1-339)
T1 construct: not shown: N-terminal His tag (His6, His8 or His) with TEV site, pQlink vector
T1 sequence: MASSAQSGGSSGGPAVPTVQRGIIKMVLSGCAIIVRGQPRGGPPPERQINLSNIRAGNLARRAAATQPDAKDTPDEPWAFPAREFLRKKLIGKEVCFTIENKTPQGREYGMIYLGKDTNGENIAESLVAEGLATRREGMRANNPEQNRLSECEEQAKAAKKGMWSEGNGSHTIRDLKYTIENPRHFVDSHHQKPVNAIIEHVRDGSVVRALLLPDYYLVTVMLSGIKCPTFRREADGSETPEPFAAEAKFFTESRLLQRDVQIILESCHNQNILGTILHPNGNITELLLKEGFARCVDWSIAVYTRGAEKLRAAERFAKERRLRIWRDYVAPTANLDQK

T2: murine SND1, wild type (mouse, UniProt Q78PY7 1-910)
T2 construct: Endogenous protein of murine PyMT mammary tumor cells; also called SND1 (in PyMT tumor cells); WT shRNA-resistant murine SND1
T2 sequence (looked up): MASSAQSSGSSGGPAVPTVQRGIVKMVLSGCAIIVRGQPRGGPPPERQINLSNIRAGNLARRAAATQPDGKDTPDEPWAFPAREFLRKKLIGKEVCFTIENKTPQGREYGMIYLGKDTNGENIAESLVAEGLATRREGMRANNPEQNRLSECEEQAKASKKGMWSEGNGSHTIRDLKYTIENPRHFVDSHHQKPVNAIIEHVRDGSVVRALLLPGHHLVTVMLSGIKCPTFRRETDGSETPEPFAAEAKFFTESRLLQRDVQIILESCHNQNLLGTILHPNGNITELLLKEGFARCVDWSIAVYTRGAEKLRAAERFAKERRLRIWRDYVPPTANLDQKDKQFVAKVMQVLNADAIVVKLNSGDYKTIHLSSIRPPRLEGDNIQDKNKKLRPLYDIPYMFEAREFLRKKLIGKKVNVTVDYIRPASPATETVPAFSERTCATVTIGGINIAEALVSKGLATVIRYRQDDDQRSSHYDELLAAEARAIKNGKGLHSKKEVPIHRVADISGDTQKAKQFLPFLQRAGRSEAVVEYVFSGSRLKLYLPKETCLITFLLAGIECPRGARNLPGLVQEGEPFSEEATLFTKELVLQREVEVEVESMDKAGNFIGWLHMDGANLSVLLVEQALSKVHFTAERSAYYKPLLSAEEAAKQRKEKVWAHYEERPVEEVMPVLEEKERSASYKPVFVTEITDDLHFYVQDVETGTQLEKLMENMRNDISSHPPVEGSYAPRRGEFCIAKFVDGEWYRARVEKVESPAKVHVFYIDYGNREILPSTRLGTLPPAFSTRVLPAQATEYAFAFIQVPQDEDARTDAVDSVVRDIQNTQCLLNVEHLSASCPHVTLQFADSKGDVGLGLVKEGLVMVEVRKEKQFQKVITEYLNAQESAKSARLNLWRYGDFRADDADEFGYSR


Molecular target: T1, His6-SND1ΔC (SND1 residues 1-339)
Assay: GST pull-down of His6-SND1ΔC, SDS-PAGE, Coomassie
Excerpt: FIGS. 7A-E represents determination of key regions and residues mediating the MTDH-SND1 interaction. (FIG. 7A) Schematics of MTDH fragments and mutants with indicated SND1-binding capability. + indicates binding and − indicates no binding based on results shown below. Two putative nuclear localization signals are residues 432-451 for NLS2 and residues 561-580 for NLS3. […] (FIG. 7B) Pulldown of His6-SND1ΔC by GST-tagged MTDH fragments with indicated boundaries. The bound proteins were examined by SDS-PAGE and visualized by Coomassie blue staining. […] For (FIG. 7B) and (FIG. 7C), 1/10 of the His6-SND1ΔC input was shown, and GST alone was used as a negative control. Representative results of 3 independent experiments are shown. (FIG. 7D, FIG. 7E) Lysates from HEK293T cells expressing the indicated ectopic human SND1, AGO2 or MTDH were immunoprecipitated with anti-Myc and immunoblotted with the indicated antibodies.
TPM1 comprises mutations D389R, D393R and W394D. TPM2 comprises mutations E399R, E400R and W401D. TPM3 comprises mutations W404D, D406R and E407R. […] The mutations are also set out in Table 3.

Binder | binding result
GST-MTDH (364-582) TPM1 (D389R, D393R, W394D) (other, not shown: N-terminal GST tag with TEV site, pQlink vector) YQWDVSRNQPYIDDEWSGLNGLSSARPNSRDNAPAEEWGNWVDEERASLLKSQEPIPDDQKVSDDDKEKGEGALPTGKSKKKKKKKKKQGEDNSTAQDTEELEKEIREDLPVNTSKTRPKQEKAFSLKTISTSDPAEVLVKNSQPIKTLPPATSTEPSVILSKSDSDKSSSQVPPILQETDKSKSNTKQNSVPPSQTKSETSWESPKQIKKKKKARRET | no binding
GST-MTDH (364-582) TPM2 (E399R, E400R, W401D) (other, not shown: N-terminal GST tag with TEV site, pQlink vector) YQWDVSRNQPYIDDEWSGLNGLSSADPNSDWNAPARRDGNWVDEERASLLKSQEPIPDDQKVSDDDKEKGEGALPTGKSKKKKKKKKKQGEDNSTAQDTEELEKEIREDLPVNTSKTRPKQEKAFSLKTISTSDPAEVLVKNSQPIKTLPPATSTEPSVILSKSDSDKSSSQVPPILQETDKSKSNTKQNSVPPSQTKSETSWESPKQIKKKKKARRET | no binding
GST-MTDH (1-289) (other, not shown: N-terminal GST tag with TEV site, pQlink vector) MAARSWQDELAQQAEEGSARLREMLSVGLGFLRTELGLDLGLEPKRYPGWVILVGTGALGLLLLFLLGYGWAAACAGSRKKRRSPPRKREEAAAVPAAAPDDLALLKNLRSEEQKKKNRKKLSEKPKPNGRTVEVAEGEAVRTPQSVTAKQPPEIDKKNEKSKKNKKKSKSDAKAVQNSSRHDGKEVDEGAWETKISHREKRQQRKRDKVLTDSGSLDSTIPGIENTITVTTEQLTTASFPVGSKKNKGDSHLNVQVSNFKSGKGDSTLQVSSGLNENLTVNGGGWNEK | no binding

Molecular target: T2, murine SND1, wild type
Assay: co-IP (anti-MTDH) from reconstituted PyMT;Mtdh-/- tumor cells, western blot
Excerpt: IP lysates were subjected to western blotting with indicated antibodies.
In particular, genetic deletion of Mtdh in mice impairs the tumor-initiating potential of mammary epithelial cells transformed by diverse oncogenes (PyMT, Wnt, ErbB2) or carcinogen stimuli, and this defect can be readily rescued by reintroducing MTDH into Mtdh-knockout (Mtdh−/−) tumor cells by lentiviral transduction. To test whether interacting with SND1 is important for the tumor-initiating effect of MTDH, the murine form of WT or mutant MTDH (W394A or W401A, corresponding mutations in mouse are W391A, W398A) was stably expressed in mammary tumor cells from PyMT;Mtdh−/− mice. […] To examine how MTDH mutations affect tumor formation in vivo, PyMT;Mtdh−/− tumor cells were orthotopically transplanted into the mammary fat pads of WT recipient mice. […] Furthermore, the size of tumors formed by PyMT;Mtdh−/− tumor cells reconstituted with mutant MTDH was much smaller than that with WT MTDH (FIG. 23D-E).

Binder | binding result
murine MTDH TPM1 (D386R, D390R, W391D) (other, mouse, UniProt Q80WJ7 1-579, looked up, also called TPM1 (murine form)) MAARSWQDELAQQAEEGSARLRELLSVGLGFLRTELGLDLGLEPKRYPGWVILVGTGALGLLLLFLLGYGWAAACAGARKKRRSPPRKREEAAPPTPAPDDLAQLKNLRSEEQKKKNRKKLPEKPKPNGRTVEVPEDEVVRNPRSITAKQAPETDKKNEKSKKNKKKSKSDAKAVQNSSRHDGKEVDEGAWETKISHREKRQQRKRDKVLTDSGSLDSTIPGIENIITVTTEQLTTASFPVGSKKNKGDSHLNVQVSNFKSGKGDSTLQVSSRLNENLTVNGGGWSEKSVKLSSQLSEEKWNSVPPASAGKRKTEPSAWTQDTGDTNANGKDWGRNWSDRSIFSGIGSTAEPVSQSTTSDYQWDVSRNQPYIDDEWSGLNGLSSARPSSRDNAPAEEWGNWVDEDRASLLKSQEPISNDQKVSDDDKEKGEGALPTGKSKKKKKKKKKQGEDNSHTQDTEDLEKDTREELPVNTSKARPKQEKACSLKTMSTSDPAEVLIKNSQPVKTLPPAISAEPSITLSKGDSDNSSSQVPPMLQDTDKPKSNAKQNSVPPSQTKSETNWESPKQIKKKKKARRET | no binding
murine MTDH W391A (printed as W394A in human numbering) (other, mouse, UniProt Q80WJ7 1-579, looked up, also called W394A (murine form)) MAARSWQDELAQQAEEGSARLRELLSVGLGFLRTELGLDLGLEPKRYPGWVILVGTGALGLLLLFLLGYGWAAACAGARKKRRSPPRKREEAAPPTPAPDDLAQLKNLRSEEQKKKNRKKLPEKPKPNGRTVEVPEDEVVRNPRSITAKQAPETDKKNEKSKKNKKKSKSDAKAVQNSSRHDGKEVDEGAWETKISHREKRQQRKRDKVLTDSGSLDSTIPGIENIITVTTEQLTTASFPVGSKKNKGDSHLNVQVSNFKSGKGDSTLQVSSRLNENLTVNGGGWSEKSVKLSSQLSEEKWNSVPPASAGKRKTEPSAWTQDTGDTNANGKDWGRNWSDRSIFSGIGSTAEPVSQSTTSDYQWDVSRNQPYIDDEWSGLNGLSSADPSSDANAPAEEWGNWVDEDRASLLKSQEPISNDQKVSDDDKEKGEGALPTGKSKKKKKKKKKQGEDNSHTQDTEDLEKDTREELPVNTSKARPKQEKACSLKTMSTSDPAEVLIKNSQPVKTLPPAISAEPSITLSKGDSDNSSSQVPPMLQDTDKPKSNAKQNSVPPSQTKSETNWESPKQIKKKKKARRET | no binding
murine MTDH W398A (printed as W401A in human numbering) (other, mouse, UniProt Q80WJ7 1-579, looked up, also called W401A (murine form)) MAARSWQDELAQQAEEGSARLRELLSVGLGFLRTELGLDLGLEPKRYPGWVILVGTGALGLLLLFLLGYGWAAACAGARKKRRSPPRKREEAAPPTPAPDDLAQLKNLRSEEQKKKNRKKLPEKPKPNGRTVEVPEDEVVRNPRSITAKQAPETDKKNEKSKKNKKKSKSDAKAVQNSSRHDGKEVDEGAWETKISHREKRQQRKRDKVLTDSGSLDSTIPGIENIITVTTEQLTTASFPVGSKKNKGDSHLNVQVSNFKSGKGDSTLQVSSRLNENLTVNGGGWSEKSVKLSSQLSEEKWNSVPPASAGKRKTEPSAWTQDTGDTNANGKDWGRNWSDRSIFSGIGSTAEPVSQSTTSDYQWDVSRNQPYIDDEWSGLNGLSSADPSSDWNAPAEEAGNWVDEDRASLLKSQEPISNDQKVSDDDKEKGEGALPTGKSKKKKKKKKKQGEDNSHTQDTEDLEKDTREELPVNTSKARPKQEKACSLKTMSTSDPAEVLIKNSQPVKTLPPAISAEPSITLSKGDSDNSSSQVPPMLQDTDKPKSNAKQNSVPPSQTKSETNWESPKQIKKKKKARRET | no binding
murine MTDH TPM2 (E396R, E397R, W398D) (other, mouse, UniProt Q80WJ7 1-579, looked up, also called TPM2 (murine form)) MAARSWQDELAQQAEEGSARLRELLSVGLGFLRTELGLDLGLEPKRYPGWVILVGTGALGLLLLFLLGYGWAAACAGARKKRRSPPRKREEAAPPTPAPDDLAQLKNLRSEEQKKKNRKKLPEKPKPNGRTVEVPEDEVVRNPRSITAKQAPETDKKNEKSKKNKKKSKSDAKAVQNSSRHDGKEVDEGAWETKISHREKRQQRKRDKVLTDSGSLDSTIPGIENIITVTTEQLTTASFPVGSKKNKGDSHLNVQVSNFKSGKGDSTLQVSSRLNENLTVNGGGWSEKSVKLSSQLSEEKWNSVPPASAGKRKTEPSAWTQDTGDTNANGKDWGRNWSDRSIFSGIGSTAEPVSQSTTSDYQWDVSRNQPYIDDEWSGLNGLSSADPSSDWNAPARRDGNWVDEDRASLLKSQEPISNDQKVSDDDKEKGEGALPTGKSKKKKKKKKKQGEDNSHTQDTEDLEKDTREELPVNTSKARPKQEKACSLKTMSTSDPAEVLIKNSQPVKTLPPAISAEPSITLSKGDSDNSSSQVPPMLQDTDKPKSNAKQNSVPPSQTKSETNWESPKQIKKKKKARRET | no binding

Molecular target: His-SND1 (16-339), SN1/2 domains, wild type (human) (UniProt Q7KZF4)
Assay: GST pull-down on glutathione resin, SDS-PAGE, Coomassie blue; normalised percentage of binding, mean±SEM of three experiments

Binder | % Maximum binding [%]
GST-MTDH (364-582) W401A (protein, not shown: a dimerising Fc or GST) YQWDVSRNQPYIDDEWSGLNGLSSADPNSDWNAPAEEAGNWVDEERASLLKSQEPIPDDQKVSDDDKEKGEGALPTGKSKKKKKKKKKQGEDNSTAQDTEELEKEIREDLPVNTSKTRPKQEKAFSLKTISTSDPAEVLVKNSQPIKTLPPATSTEPSVILSKSDSDKSSSQVPPILQETDKSKSNTKQNSVPPSQTKSETSWESPKQIKKKKKARRET | 6
GST-MTDH (364-582) W394D (protein, not shown: a dimerising Fc or GST) YQWDVSRNQPYIDDEWSGLNGLSSADPNSDDNAPAEEWGNWVDEERASLLKSQEPIPDDQKVSDDDKEKGEGALPTGKSKKKKKKKKKQGEDNSTAQDTEELEKEIREDLPVNTSKTRPKQEKAFSLKTISTSDPAEVLVKNSQPIKTLPPATSTEPSVILSKSDSDKSSSQVPPILQETDKSKSNTKQNSVPPSQTKSETSWESPKQIKKKKKARRET | 4
